# According to PMC9974412:
# Target: HIV-1 Env, strain HXB2 (HIV-1) (UniProt P04578)
substance,measurement,value
5-Helix (designed binder),"IC50 of neutralisation of HXB2 Env-pseudotyped lentivirus, HOS-CD4-CCR5 cells",8.2 nM
